This passage reports LT protein turnover (t1/2) in a cycloheximide chase, 293 cells co-transfected with LT and sT; FBW7 is that of the cells, not the ΔDF construct results from publication PMC7237485.

For the assay, the target named is HA-tagged WT WD40 (FBW7ΔDF) (human) (UniProt Q969H0).

With “Merkel cell polyomavirus small T antigen, wild type (natural protein)”, the LT protein turnover (t1/2) in a cycloheximide chase, 293 cells co-transfected with LT and sT; FBW7 is that of the cells, not the ΔDF construct is more than 10 h.
